From PMC10168641

Molecular target: NcCAR reductase (R) domain, NcCAR^Δ1–649 (Neurospora crassa)
Test: SAXS; R-domain in solution; best fit of the experimental data as a mixture of monomer and dimer

percent dimer in solution: 69%
percent monomer in solution: 31%
stoichiometry N: 2
Substance: NcCAR reductase (R) domain, NcCAR^Δ1–649 (domain or fragment)
